Reference: PMC6825360, “Chaetomella raphigera β-glucosidase D2-BGL has intriguing structural features and a high substrate affinity that renders it an efficient cellulase supplement for lignocellulosic biomass hydrolysis” (Biotechnology for Biofuels, 2019)

Assays:
[1] = molecular target: D2-BGL (Chaetomella raphigera, UniProt A0A068FT77, INS255S/N255I, form not given); assay: cellobiase assay, glucose release, crude secreted enzyme; format: biochemical; settings: crude enzyme from P. pastoris culture; mutant N255* (N255 replaced by two residues I-S); wild type measured beside it 1.45 mM
[2] = molecular target: T1, D2-BGL (Chaetomella raphigera, UniProt A0A068FT77); assay: inhibition of pNPG hydrolysis at […] glucose, absorbance of pNP at […] nm, non-linear fit; format: biochemical; settings: read-out: Ki glucose; substrate pNPG; pH 5 (50 mM sodium acetate), 55 °C; product inhibition
T1 construct: secreted recombinant from Pichia pastoris SMD1168 (pGAPZalphaC), His-tagged (strain #5 has an extra N-terminal 6-His), IMAC purified, N-hyperglycosylated, smear 95-180 kDa; TIM barrel 1-307, alpha/beta sandwich 319-521, FnIII 573-712
T1 sequence (A0A068FT77 1-722): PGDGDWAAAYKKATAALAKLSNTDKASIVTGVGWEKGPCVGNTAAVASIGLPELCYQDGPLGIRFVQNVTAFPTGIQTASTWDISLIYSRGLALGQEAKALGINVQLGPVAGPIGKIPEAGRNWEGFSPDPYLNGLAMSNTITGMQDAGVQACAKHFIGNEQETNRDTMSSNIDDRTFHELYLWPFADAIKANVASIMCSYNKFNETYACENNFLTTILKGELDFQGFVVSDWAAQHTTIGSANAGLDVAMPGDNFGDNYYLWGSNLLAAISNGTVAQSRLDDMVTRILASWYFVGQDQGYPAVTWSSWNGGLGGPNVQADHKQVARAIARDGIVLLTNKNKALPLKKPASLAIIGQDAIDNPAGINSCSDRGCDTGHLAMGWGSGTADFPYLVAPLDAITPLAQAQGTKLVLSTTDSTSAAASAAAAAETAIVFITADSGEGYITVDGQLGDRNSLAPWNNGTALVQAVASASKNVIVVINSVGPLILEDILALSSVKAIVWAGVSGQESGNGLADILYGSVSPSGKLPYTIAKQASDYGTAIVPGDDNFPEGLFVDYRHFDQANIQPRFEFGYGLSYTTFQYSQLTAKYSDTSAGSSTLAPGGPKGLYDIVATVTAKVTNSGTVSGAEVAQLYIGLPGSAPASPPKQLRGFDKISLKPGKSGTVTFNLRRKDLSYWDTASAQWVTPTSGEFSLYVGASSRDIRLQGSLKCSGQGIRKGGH

[3] = cellobiase assay after non-denaturing deglycosylation; settings: glycan lost; control: non-deglycosylated enzyme
[4] = substrate: O=[N+]([O-])c1ccc(O[C@@H]2O[C@H](CO)[C@@H](O)[C@H](O)[C@H]2O)cc1; assay: purified protein; settings: pH 5 (50 mM sodium acetate), 55 °C, 10 min
[5] = specific activity of purified enzyme; settings: glycan lost; control: wild type
[6] = productivity from culture supernatant activity, P. pastoris; settings: glycan lost; control: wild type

Molecule `OC[C@H]1O[C@@H](O[C@H]2[C@H](O)[C@@H](O)C(O)O[C@@H]2CO)[C@H](O)[C@@H](O)[C@@H]1O` (stereo partly drawn) [cellobiose] has a Km [1] of 2840 µM.

`OC[C@H]1OC(O)[C@H](O)[C@@H](O)[C@@H]1O` (stereo partly drawn) [glucose] gave a Ki [2] of 2420 ± 690 µM.

B1: β-glucosidase D2-BGL: Endo H (protein)
parent chain: PGDGDWAAAYKKATAALAKLSNTDKASIVTGVGWEKGPCVGNTAAVASIGLPELCYQDGPLGIRFVQNVTAFPTGIQTASTWDISLIYSRGLALGQEAKALGINVQLGPVAGPIGKIPEAGRNWEGFSPDPYLNGLAMSNTITGMQDAGVQACAKHFIGNEQETNRDTMSSNIDDRTFHELYLWPFADAIKANVASIMCSYNKFNETYACENNFLTTILKGELDFQGFVVSDWAAQHTTIGSANAGLDVAMPGDNFGDNYYLWGSNLLAAISNGTVAQSRLDDMVTRILASWYFVGQDQGYPAVTWSSWNGGLGGPNVQADHKQVARAIARDGIVLLTNKNKALPLKKPASLAIIGQDAIDNPAGINSCSDRGCDTGHLAMGWGSGTADFPYLVAPLDAITPLAQAQGTKLVLSTTDSTSAAASAAAAAETAIVFITADSGEGYITVDGQLGDRNSLAPWNNGTALVQAVASASKNVIVVINSVGPLILEDILALSSVKAIVWAGVSGQESGNGLADILYGSVSPSGKLPYTIAKQASDYGTAIVPGDDNFPEGLFVDYRHFDQANIQPRFEFGYGLSYTTFQYSQLTAKYSDTSAGSSTLAPGGPKGLYDIVATVTAKVTNSGTVSGAEVAQLYIGLPGSAPASPPKQLRGFDKISLKPGKSGTVTFNLRRKDLSYWDTASAQWVTPTSGEFSLYVGASSRDIRLQGSLKCSGQGIRKGGH
With B1 the “enzymatic_activity, other: specific activity” value (“enzymatic_activity, other” for short) [3] was “no change, 185 ± 21 vs 209 ± 14”.

B2: D2-BGL (Chaetomella raphigera) (protein)
chain: PGDGDWAAAYKKATAALAKLSNTDKASIVTGVGWEKGPCVGNTAAVASIGLPELCYQDGPLGIRFVQNVTAFPTGIQTASTWDISLIYSRGLALGQEAKALGINVQLGPVAGPIGKIPEAGRNWEGFSPDPYLNGLAMSNTITGMQDAGVQACAKHFIGNEQETNRDTMSSNIDDRTFHELYLWPFADAIKANVASIMCSYNKFNETYACENNFLTTILKGELDFQGFVVSDWAAQHTTIGSANAGLDVAMPGDNFGDNYYLWGSNLLAAISNGTVAQSRLDDMVTRILASWYFVGQDQGYPAVTWSSWNGGLGGPNVQADHKQVARAIARDGIVLLTNKNKALPLKKPASLAIIGQDAIDNPAGINSCSDRGCDTGHLAMGWGSGTADFPYLVAPLDAITPLAQAQGTKLVLSTTDSTSAAASAAAAAETAIVFITADSGEGYITVDGQLGDRNSLAPWNNGTALVQAVASASKNVIVVINSVGPLILEDILALSSVKAIVWAGVSGQESGNGLADILYGSVSPSGKLPYTIAKQASDYGTAIVPGDDNFPEGLFVDYRHFDQANIQPRFEFGYGLSYTTFQYSQLTAKYSDTSAGSSTLAPGGPKGLYDIVATVTAKVTNSGTVSGAEVAQLYIGLPGSAPASPPKQLRGFDKISLKPGKSGTVTFNLRRKDLSYWDTASAQWVTPTSGEFSLYVGASSRDIRLQGSLKCSGQGIRKGGH
For B2, the Km [4] was 200 ± 100 µM and the Vmax [4] was 419 µmol/min/mg.

B3: β-glucosidase D2-BGL: T431A (protein)
parent chain: PGDGDWAAAYKKATAALAKLSNTDKASIVTGVGWEKGPCVGNTAAVASIGLPELCYQDGPLGIRFVQNVTAFPTGIQTASTWDISLIYSRGLALGQEAKALGINVQLGPVAGPIGKIPEAGRNWEGFSPDPYLNGLAMSNTITGMQDAGVQACAKHFIGNEQETNRDTMSSNIDDRTFHELYLWPFADAIKANVASIMCSYNKFNETYACENNFLTTILKGELDFQGFVVSDWAAQHTTIGSANAGLDVAMPGDNFGDNYYLWGSNLLAAISNGTVAQSRLDDMVTRILASWYFVGQDQGYPAVTWSSWNGGLGGPNVQADHKQVARAIARDGIVLLTNKNKALPLKKPASLAIIGQDAIDNPAGINSCSDRGCDTGHLAMGWGSGTADFPYLVAPLDAITPLAQAQGTKLVLSTTDSTSAAASAAAAAETAIVFITADSGEGYITVDGQLGDRNSLAPWNNGTALVQAVASASKNVIVVINSVGPLILEDILALSSVKAIVWAGVSGQESGNGLADILYGSVSPSGKLPYTIAKQASDYGTAIVPGDDNFPEGLFVDYRHFDQANIQPRFEFGYGLSYTTFQYSQLTAKYSDTSAGSSTLAPGGPKGLYDIVATVTAKVTNSGTVSGAEVAQLYIGLPGSAPASPPKQLRGFDKISLKPGKSGTVTFNLRRKDLSYWDTASAQWVTPTSGEFSLYVGASSRDIRLQGSLKCSGQGIRKGGH
In the case of B3, the “enzymatic_activity, other” value [5] is reported as “no change, 189 ± 11 vs 197 ± 3” and the “expression_or_secretion, other: productivity” value [6] is reported as “decreases, 3.2 vs 9.6, T431A mutant (0.61 ± 0.05 U/mL)”.

B4: β-glucosidase D2-BGL: N68Q (protein)
parent chain: PGDGDWAAAYKKATAALAKLSNTDKASIVTGVGWEKGPCVGNTAAVASIGLPELCYQDGPLGIRFVQNVTAFPTGIQTASTWDISLIYSRGLALGQEAKALGINVQLGPVAGPIGKIPEAGRNWEGFSPDPYLNGLAMSNTITGMQDAGVQACAKHFIGNEQETNRDTMSSNIDDRTFHELYLWPFADAIKANVASIMCSYNKFNETYACENNFLTTILKGELDFQGFVVSDWAAQHTTIGSANAGLDVAMPGDNFGDNYYLWGSNLLAAISNGTVAQSRLDDMVTRILASWYFVGQDQGYPAVTWSSWNGGLGGPNVQADHKQVARAIARDGIVLLTNKNKALPLKKPASLAIIGQDAIDNPAGINSCSDRGCDTGHLAMGWGSGTADFPYLVAPLDAITPLAQAQGTKLVLSTTDSTSAAASAAAAAETAIVFITADSGEGYITVDGQLGDRNSLAPWNNGTALVQAVASASKNVIVVINSVGPLILEDILALSSVKAIVWAGVSGQESGNGLADILYGSVSPSGKLPYTIAKQASDYGTAIVPGDDNFPEGLFVDYRHFDQANIQPRFEFGYGLSYTTFQYSQLTAKYSDTSAGSSTLAPGGPKGLYDIVATVTAKVTNSGTVSGAEVAQLYIGLPGSAPASPPKQLRGFDKISLKPGKSGTVTFNLRRKDLSYWDTASAQWVTPTSGEFSLYVGASSRDIRLQGSLKCSGQGIRKGGH
For B4, the “enzymatic_activity, other” value [5] was “no change, 216 ± 23 vs 197 ± 3” and the “expression_or_secretion, other: productivity” value [6] was “decreases, 4.5 vs 9.6, N68Q mutant (0.98 ± 0.22 U/mL) ... relative to that of wild-type (1.89 ± 0.18 U/mL)”.
